Source: patent US20060240044A1

Biological target: human Vβ1.1 TcR (human)
Assay: cell-based or functional assay

Substance	Percentage of Vβ enrichment (Vβ 1.1) [%]	Vβ cDNA clones from toxin stimulated T cells identified as Vβ1.1	stimulation of T cells carrying the Vβ1.1 TcR, against ConA (further results) [times]	stimulation of T cells carrying the Vβ1.1 TcR, against ConA (initial results) [times]
recombinant SPE-L	8.44	5 of 5 cDNAs	> 80	> 50
recombinant SPE-M	6.75	4 of 5 cDNAs	70	> 60
